Experimental findings from article PMC5639367 (2017) are described below.

This test concerns the target VBC ternary complex (pVHL, Elongin B, Elongin C) (UniProt P40337 1-213; Q15370 1-104; Q15369 17-112). Briefly: BLI.

Ends that are not written are not given here.

MALKPRVV-NH2 [8-mer Cul2 peptide, Ser2 replaced by alanine]: binding was characterised by a dissociation constant (Kd) of 7100 µM.

Consider MSAKPRVV-NH2 [8-mer Cul2 peptide, Leu3 replaced by alanine], for which the dissociation constant Kd (usually the constant that tells how readily two partners part at equilibrium) is 2900 µM.

In turn, ASLKPRVV-NH2 [8-mer Cul2 peptide, Met1 replaced by alanine] gave a Kd of 2800 µM.

MSLKPRVA-NH2 [8-mer Cul2 peptide, Val8 replaced by alanine] registered a dissociation constant Kd of 500 µM.

MSLKPRAV-NH2 [8-mer Cul2 peptide, Val7 replaced by alanine]: binding was put at a Kd of 2100 µM.
